Results taken from patent US20180057579A1 (Pfizer, published 2018).
Changes are numbered by the printed parent chain. In names and notes the source's numbering stands. Blank lines part the entries; values can stand above or below the binder they belong to.

Key:
[1] = target: T1, Growth and differentiation factor-8 (GDF-8), mature human (human, UniProt O14793 267-375, conjugated to biotin in the ActRIIB ELISA and in the Fc gamma receptor SPR (site not stated)); test: cell-based or functional assay
[2] = target: T1, Growth and differentiation factor-8 …; test: SPR (BIACORE 3000), antibody captured with anti-mouse IgG, GDF-8 flowed, 1:1 Langmuir fit
[3] = target: T1, Growth and differentiation factor-8 …; test: competition ELISA: antibody inhibits biotin-GDF-8 (10 ng/ml) binding to coated ActRIIB-Fc
[4] = target: T1, Growth and differentiation factor-8 …; test: SPR (BIACORE 3000), captured antibody, GDF-8 flowed, 1:1 Langmuir fit
[5] = target: T1, Growth and differentiation factor-8 …; test: SPR
[6] = target: T1, Growth and differentiation factor-8 …; test: cell-based or functional assay; remark: listed apart in the source
[7] = target: T1, Growth and differentiation factor-8 …; test: competition ELISA (GDF-8 / ActRIIB-Fc)
[8] = target: T1, Growth and differentiation factor-8 …; test: competition ELISA
[9] = target: T2, CD32b (Fc gamma receptor) (UniProt P31994 43-217); test: SPR (Biacore T200), OGD1.0.0 captured on biotin-GDF-8 on an SA chip, receptor flowed
T2 sequence (looked up): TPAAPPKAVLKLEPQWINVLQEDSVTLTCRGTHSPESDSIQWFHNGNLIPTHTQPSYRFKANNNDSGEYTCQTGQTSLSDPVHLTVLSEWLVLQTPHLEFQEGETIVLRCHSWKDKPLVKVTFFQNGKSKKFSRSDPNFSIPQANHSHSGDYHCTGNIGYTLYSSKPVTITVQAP

[10] = target: T1, Growth and differentiation factor-8 …; test: SPR (BIACORE 3000), antibody captured on protein A, GDF-8 flowed, 1:1 Langmuir fit
[11] = target: T3, CD16a-158V (Fc gamma receptor) (UniProt P08637 17-208); test: SPR (Biacore T200), OGD1.0.0 captured on biotin-GDF-8 on an SA chip, receptor flowed, single-cycle kinetics
T3 construct: The 158V allotype is as printed

[12] = target: T4, CD32a-131H (Fc gamma receptor) (UniProt P12318 34-217); test: as above
T4 construct: The 131H allotype is as printed
T4 sequence (looked up): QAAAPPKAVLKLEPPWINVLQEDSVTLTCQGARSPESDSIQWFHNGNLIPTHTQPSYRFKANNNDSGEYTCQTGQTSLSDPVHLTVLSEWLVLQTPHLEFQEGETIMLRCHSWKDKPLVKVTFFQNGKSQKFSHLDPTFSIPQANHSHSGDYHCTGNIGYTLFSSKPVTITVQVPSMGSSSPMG

CD64 (Fc gamma receptor) = CD64 (Fc gamma receptor) (UniProt P12314 16-288, limits assumed); test: as above

B1: Murine anti-GDF-8 monoclonal antibody (parental murine antibody) (antibody, V domains shown)
VH: EVQLVESGGGLVKPGGSLKLSCAASGFTFSSYAMSWVRQTPEKRLEWVATISSGGSYTSYPDSVKGRFTISRDNAKNTLYLQMSSLRSEDTAMYYCARQDYAMNYWGQGTSVTVSS
VL: DIEMTQSHKFMSTSVGDRVSITCKASQDVSTAVAWYQQKPGQSPKLLLYSASYRYTGVPDRFTGSGSGTDFTFTISSVQAEDLAVYYCQQHYSTPWTFGGGTKLEIK
notes: also called mouse anti-GDF-8 antibody
CAGA EC50 [1]: 33.5 nM
Kd [2]: 0.0218 nM
IC50 [3]: 0.165 nM

B5: OGD1.3.0 humanized anti-GDF-8 antibody (VH3 and VL0) (antibody, V domains shown)
VH: EVQLLESGGGLVQPGGSLRLSCAASGFTFSSYAMSWVRQAPGKGLEWVSAISSSGGYTYYADSVKGRFTISRDNSKNTLYLQMNSLRAEDTAVYYCAKQDYAMNYWGQGTLVTVSS
VL: DIQMTQSPSSLSASVGDRVTITCKASQDVSTAVAWYQQKPGKAPKLLIYSASYRYTGVPSRFSGSGSGTDFTLTISSLQPEDFATYYCQQHYSTPWTFGGGTKVEIK
binding result [8]: binds

B6: OGD1.4.0 humanized anti-GDF-8 antibody (VH4 and VL0) (antibody, V domains shown)
VH: B5 VH with A50T, S54G, G56S, Y59S, A61P, M103F, N104D
VL: B5 VL
notes: VH4 carries M99F and N101D in CDR3
Kd [5]: 0.284 nM
IC50 by reporter gene assay compared to OGD1.0.0 [6]: 7.5 fold of OGD1.0.0
IC50 by ELISA compared to OGD1.0.0 [7]: 1.71 fold of OGD1.0.0

B7: OGD1.0.3 humanized anti-GDF-8 antibody (VH0 and VL3) (antibody, V domains shown)
VH: B5 VH with A50T, S54G, G56S, Y59S, A61P
VL: B5 VL with K24R, D28S, V29I, V33L, A34N, Y53S, R54L, Y55Q, T56S, H91S
Kd [5]: 0.00317 nM
IC50 by reporter gene assay compared to OGD1.0.0 [6]: 0.85 fold of OGD1.0.0
IC50 by ELISA compared to OGD1.0.0 [7]: 0.96 fold of OGD1.0.0

B8: OGD1.0.4 humanized anti-GDF-8 antibody (VH0 and VL4) (antibody, V domains shown)
VH: B5 VH with A50T, S54G, G56S, Y59S, A61P
VL: not shown
notes: VL4 is VL3 with S50A
Kd [5]: 0.00246 nM
IC50 by reporter gene assay compared to OGD1.0.0 [6]: 1.54 fold of OGD1.0.0
IC50 by ELISA compared to OGD1.0.0 [7]: 0.61 fold of OGD1.0.0

B9: OGD1.0.0 humanized anti-GDF-8 antibody (VH0 and VL0) (antibody, human IgG1, kappa)
heavy: EVQLLESGGGLVQPGGSLRLSCAASGFTFSSYAMSWVRQAPGKGLEWVSTISSGGSYTSYPDSVKGRFTISRDNSKNTLYLQMNSLRAEDTAVYYCAKQDYAMNYWGQGTLVTVSSASTKGPSVFPLAPSSKSTSGGTAALGCLVKDYFPEPVTVSWNSGALTSGVHTFPAVLQSSGLYSLSSVVTVPSSSLGTQTYICNVNHKPSNTKVDKKVEPKSCDKTHTCPPCPAPEAAGAPSVFLFPPKPKDTLMISRTPEVTCVVVDVSHEDPEVKFNWYVDGVEVHNAKTKPREEQYNSTYRVVSVLTVLHQDWLNGKEYKCKVSNKALPAPIEKTISKAKGQPREPQVYTLPPSREEMTKNQVSLTCLVKGFYPSDIAVEWESNGQPENNYKTTPPVLDSDGSFFLYSKLTVDKSRWQQGNVFSCSVMHEALHNHYTQKSLSLSPGK
light: DIQMTQSPSSLSASVGDRVTITCKASQDVSTAVAWYQQKPGKAPKLLIYSASYRYTGVPSRFSGSGSGTDFTLTISSLQPEDFATYYCQQHYSTPWTFGGGTKVEIKRTVAAPSVFIFPPSDEQLKSGTASVVCLLNNFYPREAKVQWKVDNALQSGNSQESVTEQDSKDSTYSLSSTLTLSKADYEKHKVYACEVTHQGLSSPVTKSFNRGEC
notes: also called OGD1.0.0 antibody
Kd [5]: 0.00259 nM
CAGA EC50 [1]: 27.3 nM
IC50 by reporter gene assay compared to OGD1.0.0 [6]: 1 fold of OGD1.0.0
IC50 by ELISA compared to OGD1.0.0 [7]: 1 fold of OGD1.0.0
Kd [9]: > 21000 nM
Kd [10]: 0.00259 nM
IC50 [3]: 0.14 nM
binding result [11]: no binding (tested: 0-21 µM)
binding result [12]: no binding (tested: 0-21 µM)
binding result (CD64 (Fc gamma receptor)): no binding (tested: 0-270 nM)

Results, then the binder that gave them:

CAGA EC50 [1]: 24.2 nM
Kd [4]: 0.00299 nM
IC50 [3]: 0.165 nM
B2: Chimeric mouse-human anti-GDF-8 antibody (murine variable domains and human constant domains) (antibody, human IgG1, V domains shown)
VH: B1 VH
VL: B1 VL
notes: also called Chimeric antibody

Kd [5]: 0.00146 nM
IC50 by reporter gene assay compared to OGD1.0.0 [6]: 1.03 fold of OGD1.0.0
IC50 by ELISA compared to OGD1.0.0 [7]: 0.91 fold of OGD1.0.0
B3: OGD1.0.2 humanized anti-GDF-8 antibody (VH0 and VL2) (antibody, V domains shown)
VH: B5 VH with A50T, S54G, G56S, Y59S, A61P
VL: B5 VL with S50A, Y53S, R54L, Y55Q, T56S
notes: Intact antibody produced in COS-1 cells

Kd [5]: 0.057 nM
IC50 by ELISA compared to OGD1.0.0 [7]: 5.94 fold of OGD1.0.0
B4: OGD1.0.5 humanized anti-GDF-8 antibody (VH0 and VL5) (antibody, V domains shown)
VH: B5 VH with A50T, S54G, G56S, Y59S, A61P
VL: DIQMTQSPSSLSASVGDRVTITCRASQSISTALNWYQQKPGKAPKLLIYSASSLQSGVPSRFSGSGSGTDFTLTISSLQPEDFATYYCQQSYSTPLTFGGGTKVEIK
notes: VL5 is VL3 with W96L

CAGA EC50 [1]: 26 nM
Kd [10]: 0.00725 nM
IC50 [3]: 0.14 nM
B10: OGD1.1.1 humanized anti-GDF-8 antibody (VH1 and VL1) (antibody, human IgG1, kappa)
heavy: B9 heavy with L111M
light: B9 light with G100Q
